Key:
[1] = target: T1, human FAP-ECD (extracellular domain) recombinant fragment containing a C-terminal His6 tag (human, UniProt Q12884 26-760, randomly biotinylated with NHS ester-activated biotin (as used on the SA chip and Streptawell plates)); test: epitope ELISA on biotinylated human FAP, co-incubated with C5 IgG2a, 5 ug/mL
T1 construct: also called biotinylated human FAP-ECD; biotinylated human FAP
T1 sequence: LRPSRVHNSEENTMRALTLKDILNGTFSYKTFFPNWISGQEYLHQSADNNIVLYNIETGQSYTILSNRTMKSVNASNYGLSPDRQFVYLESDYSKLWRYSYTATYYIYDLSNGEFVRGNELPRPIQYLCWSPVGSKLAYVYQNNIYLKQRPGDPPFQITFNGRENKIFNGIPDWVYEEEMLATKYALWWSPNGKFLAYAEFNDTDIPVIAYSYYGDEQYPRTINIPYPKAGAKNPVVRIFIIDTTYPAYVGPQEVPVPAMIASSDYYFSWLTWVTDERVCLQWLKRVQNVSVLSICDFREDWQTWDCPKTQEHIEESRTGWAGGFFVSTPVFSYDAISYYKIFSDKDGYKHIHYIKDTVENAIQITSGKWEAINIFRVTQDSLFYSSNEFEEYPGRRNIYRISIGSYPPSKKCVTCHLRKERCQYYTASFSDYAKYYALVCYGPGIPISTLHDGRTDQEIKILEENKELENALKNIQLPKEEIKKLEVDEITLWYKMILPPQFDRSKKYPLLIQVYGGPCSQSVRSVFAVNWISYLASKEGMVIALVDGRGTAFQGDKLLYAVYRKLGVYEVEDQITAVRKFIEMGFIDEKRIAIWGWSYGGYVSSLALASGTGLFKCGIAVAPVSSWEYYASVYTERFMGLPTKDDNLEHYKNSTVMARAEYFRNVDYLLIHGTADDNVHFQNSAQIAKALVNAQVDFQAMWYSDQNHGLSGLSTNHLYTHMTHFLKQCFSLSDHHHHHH
Protocol: To evaluate binding, 100 nM of biotinylated human FAP were coated on Streptawell plates for 30 min at 37° C.
The C5 antibody in IgG2a format was incubated together with the 7NP2 antibody in IgG1 format, the F5 antibody in IgG1 format (WO2016/116399), the ESC11 antibody in IgG1 format (Fisher et al., (2012) Clin Cancer Res; 18(22)), or the (negative control) antibody KSF in IgG1 format for 1.5 h at room temperature at a concentration of 5 μg/mL in the antigen-coated wells. After 3 washes with PBS, binding of the antibodies to human FAP was detected using anti-human or anti-murine HRP conjugates (FIG. 7).

[2] = target: T2, canine FAP (caFAP) extracellular domain (ECD) (domestic dog (Canis familiaris)); test: ELISA, 120 nM caFAP-ECD coated, antibody at 5 ug/mL
T2 construct: also called caFAP-ECD
T2 chain: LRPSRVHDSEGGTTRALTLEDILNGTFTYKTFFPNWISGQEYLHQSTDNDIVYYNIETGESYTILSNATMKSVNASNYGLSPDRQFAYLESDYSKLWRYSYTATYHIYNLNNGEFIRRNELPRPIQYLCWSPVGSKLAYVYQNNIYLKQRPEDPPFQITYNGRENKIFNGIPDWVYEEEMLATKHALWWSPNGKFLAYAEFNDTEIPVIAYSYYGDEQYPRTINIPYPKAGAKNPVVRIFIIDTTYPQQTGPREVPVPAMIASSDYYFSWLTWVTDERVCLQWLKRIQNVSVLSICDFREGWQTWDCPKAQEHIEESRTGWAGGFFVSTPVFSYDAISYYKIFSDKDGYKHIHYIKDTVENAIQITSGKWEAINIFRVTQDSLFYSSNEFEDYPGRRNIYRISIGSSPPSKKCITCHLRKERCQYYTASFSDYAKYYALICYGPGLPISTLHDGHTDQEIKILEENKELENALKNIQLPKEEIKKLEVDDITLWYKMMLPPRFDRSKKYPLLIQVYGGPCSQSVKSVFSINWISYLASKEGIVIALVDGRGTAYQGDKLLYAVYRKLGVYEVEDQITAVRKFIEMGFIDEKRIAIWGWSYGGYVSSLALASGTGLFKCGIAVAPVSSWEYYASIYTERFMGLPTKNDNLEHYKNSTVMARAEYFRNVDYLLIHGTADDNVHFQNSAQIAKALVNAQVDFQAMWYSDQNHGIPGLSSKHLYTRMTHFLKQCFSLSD
Protocol: Cross-reactivity of the anti-hFAP antibodies with caFAP-ECD was tested using ELISA. 120 nM of caFAP-ECD was coated on Maxisorp plates overnight at 4° C. […] Specifically, the C5 antibody was employed in IgG2a format, while all other antibodies, including the 7NP2 antibody, were in IgG1 format. The differences between the IgG2a and IgG1 formats are not expected to affect binding to FAP. After 3 washes with PBS, binding of the antibodies to caFAP-ECD was detected using an anti-human or anti-murine antibody HRP conjugate.

binding result [1]: binds | binding result [2]: binds
B1: anti-FAP antibody 7NP2 in IgG1 format (antibody, V domains shown)
VH: EVQLLESGGGLVQPGGSLRLSCAASGFTFSSYAMSWVRQAPGKGLEWVSAIGSVGGPTYYADSVKGRFTISRDNSKNTLYLQMNSLRAEDTAVYYCAKRLAWFDYWGQGTLVTVSS
VL: EIVLTQSPGTLSLSPGERATLSCRASQSVSSSYLAWYQQKPGQAPRLLIYGASSRATGIPDRFSGSGSGTDFTLTISRLEPEDFAVYYCQQSGKGPLTFGQGTKVEIKR
notes: also called 7NP2 IgG1; 7NP2(IgG1)

Source: patent US20240199762A1 (PHILOGEN S P A, published 2024)
